The values that follow come from PMC5749176.

Data set [1] addresses AR-DBD (human, UniProt P10275 557-647). Put plainly: EMSA.
Data set [2] deals with GR-DBD (human, UniProt P04150 418-506). Put plainly: EMSA. Background: A gel shift assay detects complexes by their altered migration in electrophoresis.
Chain of GR-DBD (P04150 418-506): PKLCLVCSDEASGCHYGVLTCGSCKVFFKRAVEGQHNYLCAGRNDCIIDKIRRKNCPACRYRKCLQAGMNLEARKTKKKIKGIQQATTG

Chain of AR-DBD (P10275 557-647): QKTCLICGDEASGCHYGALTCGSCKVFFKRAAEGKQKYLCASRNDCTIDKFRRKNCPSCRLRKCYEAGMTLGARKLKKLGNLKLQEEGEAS

B1: Shape-2 (dsDNA)
DNA 1: GGGCGGAGGGTACACCGTGTACTCTTCCCCC
DNA 2: GGGGGAAGAGTACACGGTGTACCCTCCGCCC
On to B1, for which the binding result in data set [1] is given as “binds”.

B2: Shape-1 (dsDNA)
DNA 1: GGCCAAAAAGAACACCGTGTACTTTTGGGCT
DNA 2: AGCCCAAAAGTACACGGTGTTCTTTTTGGCC
Regarding B2, the binding result in data set [1] is “binds”.

B3: Shape-4 (dsDNA)
DNA 1: GGGCGTTCGGGACATAATGGCGGGAACCCCC
DNA 2: GGGGGTTCCCGCCATTATGTCCCGAACGCCC
As for B3, the binding result in data set [2] is on record as “binds”.

B4: Shape-3 (dsDNA)
DNA 1: AAACAAAAAGAACACCGTTTTATTTTGGTGT
DNA 2: ACACCAAAATAAAACGGTGTTCTTTTTGTTT
Regarding B4, the binding result in data set [1] is on record as “binds”.
